Test results reported in patent publication US20110091473A1, “NOVEL ANTIBODY THERAPIES” (GENMAB A/S, priority 2007, published 2011).

Assays:
CD20 on WIL2-S cells = target: T1, CD20 on WIL2-S cells (Homo sapiens, UniProt P11836); assay: Binding of anti-CD20 mAb to WIL2-S cells with varied cholesterol content; settings: for affinity in binding to cholesterol-depleted cells: WIL2-S cells depleted with lovastatin; for binding affinity after addition of cholesterol: cholesterol added to non-treated control WIL2-S cells; for binding affinity after replenishing of cholesterol: lovastatin-treated WIL2-S cells replenished with cholesterol
T1 construct: endogenous in cells; host or cells: WIL2-S cells
T1 sequence (P11836 1-297): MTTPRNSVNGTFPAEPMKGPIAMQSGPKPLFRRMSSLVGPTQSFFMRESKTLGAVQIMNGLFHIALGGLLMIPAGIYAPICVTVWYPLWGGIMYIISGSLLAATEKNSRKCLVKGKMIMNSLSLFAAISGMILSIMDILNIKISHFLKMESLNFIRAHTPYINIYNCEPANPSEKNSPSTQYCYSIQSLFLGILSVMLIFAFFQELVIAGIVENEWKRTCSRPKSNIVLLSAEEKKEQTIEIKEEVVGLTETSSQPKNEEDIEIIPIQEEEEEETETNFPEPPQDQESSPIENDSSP
Method: To reconstitute cholesterol into the cell membrane of the cells or increase the cholesterol content of the untreated cells, cholesterol (ICN Biomedicals, Zoetermeer, The Netherlands) was added to the test medium in a final concentration of 5 mg/ml 2 hours prior to FACS analysis. The cells were incubated for 30 minutes at 37° C. under gentle shaking conditions, after which the cells were washed twice in PBS and resuspended to 2×10^6 viable cells/ml. For comparison MβCD- and lovastatin-treated cell lines treated with only diluent were included.
To confirm that lovastatin treatment might result in a change in CD20 mAb binding affinity lovastatin-treated RAJI cells were stained with a concentration curve of CD20 mAb. […] After washing with FACS buffer, polyclonal rabbit-anti-human IgG-FITC (DAKO A/S, Denmark) was added for 30 minutes at 4° C. to detect the bound CD20 mAb. Cells were washed again, resuspended in FACS buffer and analyzed on a flow cytometer. The mean fluorescence intensity (MFI) was taken as measure for CD20 binding of the mAb.
Binding of anti-CD20 mAb to CD20 on various B cell lines could be restored upon replenishment of the cell membrane cholesterol content via addition of cholesterol (according to procedure as described in Example 4) to either MβCD- or lovastatin-treated cells, as measured by FACS analysis (FIG. 3). This was also observed for WIL2-S cells for which binding affinity of anti-CD20 mAbs to CD20 was determined after reconstitution of cholesterol of cholesterol-depleted cells using flow cytometry (FIG. 13).

RAJI cells = assay: Rituximab-induced ADCC of RAJI cells, 51Cr-release assay with PBMC; type: cell-based, human; settings: for EC50 for rituximab-mediated ADCC: E:T 100:1
Method: In the antibody-dependent cellular cytotoxicity (ADCC) assay target B cells are labelled with radioactive chromium (^51Cr), and incubated with antibody and effector cells. Upon lysis the target cells release ^51Cr which can be measured by separation of the supernatant from the cells and quantification using a scintillation counter.
RAJI cells (obtained from ECACC, Porton Down, United Kingdom) served as target cells, and were cultured in RPMI 1640 supplemented with 10% heat-inactivated cosmic calf serum (CCS), 1 U/ml penicillin, 1 μg/ml streptomycin, and 4 mM L-glutamine (all from Invitrogen, Carlsbad, Calif.). RAJI cells were either non-treated or cholesterol-depleted using lovastatin (10 μM) as described in Example 3, and re-suspended in test medium to a concentration of 2×10^6 viable cells/ml.
RAJI cells were labeled with 20 μCi^51Cr (Amersham Biosciences, Uppsala, Sweden) for 2 hours. After extensive washing in medium, the cells were adjusted to 2×10^5 cells/ml. […] Assays were started by adding ^51Cr-labeled RAH cells (50 μl) giving a final volume of 200 >l. For isolated effector cells, containing 20% NK cells, an effector to target (E:T) ratio of 100:1 was used. After incubation (4 hours, 37° C.), assays were stopped by centrifugation, and ^51Cr release from triplicates was measured in counts per minute (cpm) in a scintillation counter. Percentage of cellular cytotoxicity was calculated using the following formula:
% specific lysis=(experimental cpm−basal cpm)/(maximal cpm−basal cpm)×100
with maximal ^51Cr release determined by adding TritonX-100 (5% final concentration) to target cells, and basal release measured in the absence of sensitizing antibodies and effector cells.

[1] = tested on: CD20 on freshly isolated B cells; assay: CD20/CD21 MFI ratio on freshly isolated B cells of atorvastatin-treated patients; type: in vivo, human; settings: day 3 vs day 0 after single dose 80 mg atorvastatin; CD20 detected with the named mAb
Source text: CD21 is a protein expressed by B cells. Its expression has been shown unaffected upon cholesterol depletion of a B cell line (Daudi) and for freshly isolated B cell enriched cell population of two independent donors (FIG. 26). Therefore, CD21 mAb binding is considered as an indicator for the amount of B cells present per staining. The MFI of CD20 mAb and CD21 mAb binding was identified by gating on viable cells in the lymphogate (FSC vs SSC), and subsequently on CD21+ cells when analyzing the MFI for the CD20 mAb. In order to be able to correlate the CD20 expression measured in between days CD20 mAb binding was quantitated relative to CD21 mAb binding within the same staining by calculating the ratio of MFI of CD20/CD21 mAb.
To determine CD20 and CD21 expression on B cells of hypercholesterolemic patients treated with atorvastatin PBMC were isolated out of whole blood drawn on day 0 (pre-treatment) and day 3 after treatment (as described in Example 7). Freshly isolated B cells were stained with different FITC-conjugated CD20 mAbs 2F2, 11B8, B1 (GlaxoSmithKline, Stevenage, United Kingdom) and PE-conjugated CD21 mAb (B-Ly4, BD Pharmingen, Franklin Lakes, N.J.) by 30 minutes incubation at room temperature in the dark. Cells were washed and mAb binding intensity (MFI) was analysed using a FACS Calibur (Becton Dickinson, Breda, The Netherlands).

Daudi cells = assay: CDC of Daudi cells, MTT analysis; type: cell-based, human; settings: increased concentrations of MβCD
Method: CDC was induced by incubating B cells with anti-CD20 mAb (as described in Example 2). After 1-hour incubation (3-(4,5-dimethylthiazol-2-yl)-2,5-diphenyltetrazolium bromide (MTT) solution (5 mg/ml, Roche, Diagnostics, Almere, The Netherlands) was added to each well (flat-bottom microtiter plates; Nunc, Rochester, N.Y.). The reaction was stopped after 4 hours of incubation at 37° C. by the addition of 100 μl of 20% SDS (Roche Diagnostics, Almere, The Netherlands). After overnight incubation at 37° C. the absorbance of the samples was measured at 550-525 nm using an Elisa reader (EL808x, Biotek instruments, Highland park, Vt., USA). Cytotoxicity was expressed as a relative viability of the stimulated cells compared to cells incubated with medium only and was calculated as follows: relative viability=[(Ae−Ab)/(Ac−Ab)]*100, where Ab is the background absorbance, Ae is experimental absorbance of the lysed cells and Ac is the absorbance of untreated cells. The viability was expressed as percentage survival in comparison to non-cholesterol depleted cells (control).

Row | Substance | affinity in binding to cholesterol-depleted cells (CD20 on WIL2-S cells) | binding affinity after addition of cholesterol (CD20 on WIL2-S cells) | binding affinity after replenishing of cholesterol (CD20 on WIL2-S cells) | EC50 for rituximab-mediated ADCC (RAJI cells; control (non-treated) RAJI cells) [µg/mL] | EC50 for rituximab-mediated ADCC (RAJI cells; lovastatin-treated (10 μM) RAJI cells) [µg/mL] | increase of EC50 for rituximab-mediated ADCC (RAJI cells; lovastatin-treated vs control cells) [fold] | average decrease in CD20/CD21 MFI ratio [1] [%] | mAb-induced CDC (cell survival) (Daudi cells)
1 | rituximab: anti-CD20 antibody Rituxan/MabThera, type I | reduced affinity | further improved the binding affinity | restores affinity to the level of non-treated cells | 0.024 | 0.082 | ~4 |  | 
2 | 2F2: human anti-CD20 mAb, VH SEQ ID NO:1, VL SEQ ID NO:2, disclosed in WO 2004/035607 | reduced affinity | further improved the binding affinity | restores affinity to the level of non-treated cells |  |  |  | 18 | diminished
